For series [1] the following is noted: in vivo; cited from earlier work.
The nature of series [2]: Oral bioavailability of hydrocodone conjugates in rats, LC/MS/MS. Particulars: male, Sprague-Dawley, rat, plasma, po.
Series [3] is described as follows: Intranasal bioavailability of hydrocodone conjugates in rats, LC/MS/MS. The following applies: male, Sprague-Dawley, rat, plasma, 1 mg/kg.
Series [4] can be described thus: Intravenous bioavailability of hydrocodone conjugates in rats, LC/MS/MS.
Series [5] can be described thus: Oral plasma levels of oxycodone conjugates in rats, ELISA. Particulars: oral 2 mg/kg.
A short description of series [6]: Intranasal plasma levels of oxycodone conjugates in rats, ELISA. The following applies: intranasal 2 mg/kg.
A short description of series [7]: Intranasal bioavailability of oxycodone conjugates in rats, LC/MS/MS. Particulars: 1 mg/kg dose.
The nature of series [8]: Intravenous bioavailability of oxycodone conjugates in rats, LC/MS/MS. Particulars: 1 mg/kg dose.
Where [9] appears, read: intravenous, 1 mg/kg hydrocodone base content.
[10] abbreviates: male, Sprague-Dawley, rat, plasma, iv, 1 mg/kg.

With `COc1ccc2c3c1O[C@H]1C(=O)CC[C@H]4[C@@H](C2)N(C)CC[C@]314` [Hydrocodone, reference compound], in series [1], the Therapeutic plasma concentration was 1 to 30 ng/mL and the Toxic plasma concentration result is on record as “greater than 100 ng/mL”. In addition, in series [2] (1 mg/kg), the AUC was 45.1 ng·h/mL, the peak level (Cmax) was 114 ng/mL, the concentration at 0 h amounted to 0 ng/mL and the concentration at 0.1 h is 114 ng/mL. In addition, in series [2] (1 mg/kg), the concentration at 0.5 h stood at 14.3 ng/mL, the concentration at 1 h was found to be 7 ng/mL, the concentration at 2 h worked out at 2.6 ng/mL and the concentration at 4 h worked out at 1 ng/mL. In series [2] (2 mg/kg), this compound yielded an AUC of 38.2 ng·h/mL, a Cmax of 60.3 ng/mL, a concentration at 0 h of 0 ng/mL and a concentration at 0.1 h of 60.3 ng/mL. In series [2] (2 mg/kg), this compound displayed a concentration at 0.5 h of 15.6 ng/mL, a concentration at 1 h of 12.9 ng/mL, a concentration at 2 h of 3.4 ng/mL and a concentration at 4 h of 1.3 ng/mL. In series [2] (5 mg/kg), this compound yielded an exposure (AUC) of 234 ng·h/mL, a maximum concentration (Cmax) of 629 ng/mL, a concentration at 0 h of 0 ng/mL and a concentration at 0.1 h of 629 ng/mL. In series [2] (5 mg/kg), this compound displayed a concentration at 0.5 h of 74.3 ng/mL, a concentration at 1 h of 80.8 ng/mL, a concentration at 2 h of 18.4 ng/mL and a concentration at 4 h of 4.9 ng/mL. In series [2] (25 mg/kg), this compound had an AUC of 419 ng·h/mL, a Cmax of 409 ng/mL, a concentration at 0 h of 0 ng/mL and a concentration at 0.1 h of 409 ng/mL. In series [2] (25 mg/kg), this compound showed a concentration at 0.5 h of 154 ng/mL, a concentration at 1 h of 86.2 ng/mL, a concentration at 2 h of 83.3 ng/mL and a concentration at 4 h of 57.8 ng/mL. In series [3] (iv), this compound came in with an exposure (AUC) of 74.7 ng·h/mL and a maximum concentration (Cmax) of 543 ng/mL. Moreover, in series [3] (other: intranasal), the concentration at 0 min amounted to 0 ng/mL, the concentration at 5 min is 441 ng/mL, the concentration at 15 min was found to be 543 ng/mL and the concentration at 30 min stood at 227 ng/mL. In series [3] (other: intranasal), this compound returned a concentration at 60 min of 96 ng/mL. Besides, in series [4] (setting [9]), the “HC (hydrocodone) AUC, Percent relative to hydrocodone bitartrate” value is recorded as 100% and the “HC (hydrocodone) Cmax, Percent relative to hydrocodone bitartrate” value was 100%. For the same compound, in series [4] (setting [10]), the AUC stood at 24.1 ng·h/mL and the Cmax is 43 ng/mL.

Take `COc1ccc2c3c1O[C@H]1C(OC(=O)[C@@H](NC(=O)[C@@H]4CCCN4C(=O)[C@@H](N)CCC(=O)O)C(C)C)=CC[C@@]4(OC(=O)[C@@H](NC(=O)[C@@H]5CCCN5C(=O)[C@@H](N)CCC(=O)O)C(C)C)[C@@H](C2)N(C)CC[C@]314` [[Glu-Pro-Val]2-OC]: in series [5], the “% AUC” value worked out at 142% and the “% Cmax” value was 134%. In addition, in series [6], the “% AUC” value was 56% and the “% Cmax” value came to 65%.

For the compound `COc1ccc2c3c1O[C@H]1C(OC(=O)[C@@H](NC(=O)[C@H](Cc4ccc(O)cc4)NC(=O)[C@@H](N)CCC(=O)O)C(C)C)=CC[C@@]4(OC(=O)[C@@H](NC(=O)[C@H](Cc5ccc(O)cc5)NC(=O)[C@@H](N)CCC(=O)O)C(C)C)[C@@H](C2)N(C)CC[C@]314` [[Glu-Tyr-Val]2-OC], in series [5], the “% AUC” value came out at 115% and the “% Cmax” value came to 103%. Moreover, in series [6], the “% AUC” value turned out to be 18% and the “% Cmax” value is reported as 20%.

On to `COc1ccc2c3c1O[C@H]1C(OC(=O)[C@@H](NC(=O)[C@H](CCC(=O)O)NC(=O)CN)C(C)C)=CC[C@@]4(OC(=O)[C@@H](NC(=O)[C@H](CCC(=O)O)NC(=O)CN)C(C)C)[C@@H](C2)N(C)CC[C@]314` [[Gly-Glu-Val]2-OC], for which, in series [5], the “% AUC” value was 93% and the “% Cmax” value is listed as 61%. Further, in series [6], the “% AUC” value is 29% and the “% Cmax” value was determined as 48%.

In the case of `COc1ccc2c3c1O[C@H]1C(OC(=O)[C@@H](NC(=O)[C@H](Cc4ccc(O)cc4)NC(=O)CN)C(C)C)=CC[C@@]4(OC(=O)[C@@H](NC(=O)[C@H](Cc5ccc(O)cc5)NC(=O)CN)C(C)C)[C@@H](C2)N(C)CC[C@]314` [[Gly-Tyr-Val]2-OC], in series [5], the “% AUC” value is 92% and the “% Cmax” value was 99%. For the same compound, in series [6], the “% AUC” value turned out to be 56% and the “% Cmax” value worked out at 54%.

In the case of `CC[C@H](C)[C@H](N)C(=O)N[C@@H](Cc1ccc(O)cc1)C(=O)N[C@H](C(=O)OC1=CC[C@@]2(OC(=O)[C@@H](NC(=O)[C@H](Cc3ccc(O)cc3)NC(=O)[C@@H](N)[C@@H](C)CC)C(C)C)[C@H]3Cc4ccc(OC)c5c4[C@@]2(CCN3C)[C@H]1O5)C(C)C` [[Ile-Tyr-Val]2-OC], in series [5], the “% AUC” value was 71% and the “% Cmax” value is given as 82%. Further, in series [6], the “% AUC” value worked out at 3% and the “% Cmax” value is listed as 4%.

For the compound `COc1ccc2c3c1O[C@H]1C(OC(=O)[C@@H](NC(=O)[C@H](Cc4ccc(O)cc4)NC(=O)[C@@H](N)CC(C)C)C(C)C)=CC[C@@]4(OC(=O)[C@@H](NC(=O)[C@H](Cc5ccc(O)cc5)NC(=O)[C@@H](N)CC(C)C)C(C)C)[C@@H](C2)N(C)CC[C@]314` [[Leu-Tyr-Val]2-OC], in series [5], the “% AUC” value is listed as 131% and the “% Cmax” value was found to be 120%. Besides, in series [6], the “% AUC” value is recorded as 4% and the “% Cmax” value is on record as 5%.

As to `COc1ccc2c3c1O[C@H]1C(OC(=O)[C@H](CC(C)C)NC(=O)[C@@H]4CCCN4C(=O)[C@@H]4CCCN4)=CC[C@@]4(OC(=O)[C@H](CC(C)C)NC(=O)[C@@H]5CCCN5C(=O)[C@@H]5CCCN5)[C@@H](C2)N(C)CC[C@]314` [[PPL]2-OC, [PPL]2-Oxycodone], the “Oxycodone plus oxymorphone level at 5 Minutes” value in series [7] (5 min) is 1380; in series [8] (5 min), 22. Also, the “Oxycodone plus oxymorphone level at 15 Minutes” value in series [7] (15 min) is recorded as 499; in series [8] (15 min) it was 19. Moreover, the “Oxycodone plus oxymorphone level at 30 Minutes” value in series [7] (30 min) is recorded as 390; in series [8] (30 min), 19. For the same compound, the “Oxycodone plus oxymorphone level at 60 Minutes” value in series [7] (60 min) came out at 98; in series [8] (60 min), 43. The “AUC Percent OC” value in series [7] (oxycodone plus oxymorphone) amounted to 61%; in series [8] (oxycodone plus oxymorphone) it was 29%. The “Cmax Percent OC” value in series [7] (oxycodone plus oxymorphone) came out at 65%; in series [8] (oxycodone plus oxymorphone), 43%. Besides, the “AUC 0-1 h” value in series [8] (oxycodone plus oxymorphone) amounted to 24 ng·h/mL. Also, in series [8] (oxycodone plus oxymorphone), the Cmax came out at 43 ng/mL.

Consider `COc1ccc2c3c1O[C@H]1C(OC(=O)[C@@H](NC(=O)[C@H](CCC(=O)O)NC(=O)[C@@H]4CCCN4)C(C)C)=CC[C@@]4(OC(=O)[C@@H](NC(=O)[C@H](CCC(=O)O)NC(=O)[C@@H]5CCCN5)C(C)C)[C@@H](C2)N(C)CC[C@]314` [[Pro-Glu-Val]2-OC], for which the “% AUC” value in series [5] turned out to be 90%; in series [6] it was 34%. Moreover, the “% Cmax” value came out at 82% in series [5] and 46% in series [6].

Consider `COc1ccc2c3c1O[C@H]1C(OC(=O)[C@@H](NC(=O)CNC(=O)[C@@H](N)CO)C(C)C)=CC[C@@]4(OC(=O)[C@@H](NC(=O)CNC(=O)[C@@H](N)CO)C(C)C)[C@@H](C2)N(C)CC[C@]314` [[Ser-Gly-Val]2-OC], for which, in series [5], the “% AUC” value is 90% and the “% Cmax” value is reported as 92%. In addition, in series [6], the “% AUC” value amounted to 64% and the “% Cmax” value was 73%.

Source of the values: patent US7375083B2, “Pharmaceutical compositions for prevention of overdose or abuse” (Shire LLC, priority 2003, dated 2008).
